Measured values as given in US20150344570A1 (published 2015).

B1: GpH7-A5/GpH7-B3 variant T335_11K/GpL16-k0 (antibody, human IgG1, kappa)
heavy 1: not shown
heavy 2: not shown
light: DIVMTQSPLSLPVTPGEPASISCQASESLVHSNRNTYLHWYLQKPGQSPQLLIYKVSNRFSGVPDRFSGSGSGTDFTLKISRVEAEDVGVYYCSQNTHVPPTFGQGTKVEIERTVAAPSVFIFPPSDEQLKSGTASVVCLLNNFYPREAKVQWKVDNALQSGNSQESVTEQDSKDSTYSLSSTLTLSKADYEKHKVYACEVTHQGLSSPVTKSFNRGEC
notes: He Ab; mutation in the GpH7-B3 chain only; also called He Ab
B2: GpH7-A5/GpH7-B3 variant T335_12R/GpL16-k0 (antibody, human IgG1, kappa)
heavy 1: not shown
heavy 2: not shown
light: B1 light
notes: as for B1
B3: GpH7-A5/GpH7-B3 variant P329_01G/GpL16-k0 (antibody, human IgG1, kappa)
heavy 1: not shown
heavy 2: not shown
light: B1 light
notes: He Ab: mutation in the GpH7-B3 H chain only
B4: GpH7-A5/GpH7-B3 variant I332_03V/GpL16-k0 (antibody, human IgG1, kappa)
heavy 1: not shown
heavy 2: not shown
light: B1 light
notes: as for B3
B5: GpH7-A5/GpH7-B3 variant A327_04F/GpL16-k0 (antibody, human IgG1, kappa)
heavy 1: not shown
heavy 2: not shown
light: B1 light
notes: as for B3
B6: GpH7-A5/GpH7-B3 variant A330_07I/GpL16-k0 (antibody, human IgG1, kappa)
heavy 1: not shown
heavy 2: not shown
light: B1 light
notes: as for B3
B7: GpH7-A5/GpH7-B3 variant I336_19Q/GpL16-k0 (antibody, human IgG1, kappa)
heavy 1: not shown
heavy 2: not shown
light: B1 light
notes: as for B3
B8: GpH7-A5/GpH7-B3 variant I332_18N/GpL16-k0 (antibody, human IgG1, kappa)
heavy 1: not shown
heavy 2: not shown
light: B1 light
notes: as for B3
B9: GpH7-A5/GpH7-B3 variant A330_08L/GpL16-k0 (antibody, human IgG1, kappa)
heavy 1: not shown
heavy 2: not shown
light: B1 light
notes: He Ab: A330L (EU numbering) in the GpH7-B3 H chain only; also called GpH7-A5/GpH7-B3-20-08L/GpL16-k0
B10: GpH7-A5/GpH7-B3 variant I336_20W/GpL16-k0 (antibody, human IgG1, kappa)
heavy 1: not shown
heavy 2: not shown
light: B1 light
notes: as for B3
B11: GpH7-A5/GpH7-B3 variant E333_13S/GpL16-k0 (antibody, human IgG1, kappa)
heavy 1: not shown
heavy 2: not shown
light: B1 light
notes: as for B3
B12: GpH7-A5/GpH7-B3 variant E333_18N/GpL16-k0 (antibody, human IgG1, kappa)
heavy 1: not shown
heavy 2: not shown
light: B1 light
notes: as for B3
B13: GpH7-A5/GpH7-B3 variant I332_12R/GpL16-k0 (antibody, human IgG1, kappa)
heavy 1: not shown
heavy 2: not shown
light: B1 light
notes: as for B3
B14: GpH7-A5/GpH7-B3 variant A330_13S/GpL16-k0 (antibody, human IgG1, kappa)
heavy 1: not shown
heavy 2: not shown
light: B1 light
notes: as for B3
B15: GpH7-A5/GpH7-B3 variant A327_06M/GpL16-k0 (antibody, human IgG1, kappa)
heavy 1: not shown
heavy 2: not shown
light: B1 light
notes: as for B3
B16: GpH7-A5/GpH7-B3 variant A330_18N/GpL16-k0 (antibody, human IgG1, kappa)
heavy 1: not shown
heavy 2: not shown
light: B1 light
notes: as for B3
B17: GpH7-A5/GpH7-B3 variant A327_12R/GpL16-k0 (antibody, human IgG1, kappa)
heavy 1: not shown
heavy 2: not shown
light: B1 light
notes: as for B3
B18: GpH7-A5/GpH7-B3 variant L328_12R/GpL16-k0 (antibody, human IgG1, kappa)
heavy 1: not shown
heavy 2: not shown
light: B1 light
notes: as for B3
B19: GpH7-A5/GpH7-B3 variant N325_12R/GpL16-k0 (antibody, human IgG1, kappa)
heavy 1: not shown
heavy 2: not shown
light: B1 light
notes: as for B3
B20: GpH7-A5/GpH7-B3 variant E333_11K/GpL16-k0 (antibody, human IgG1, kappa)
heavy 1: not shown
heavy 2: not shown
light: B1 light
notes: as for B3
B21: GpH7-A5/GpH7-B3 variant A327_19Q/GpL16-k0 (antibody, human IgG1, kappa)
heavy 1: not shown
heavy 2: not shown
light: B1 light
notes: as for B3
B22: GpH7-A5/GpH7-B3 variant A330_03V/GpL16-k0 (antibody, human IgG1, kappa)
heavy 1: not shown
heavy 2: not shown
light: B1 light
notes: as for B3
B23: GpH7-A5/GpH7-B3 variant L328_11K/GpL16-k0 (antibody, human IgG1, kappa)
heavy 1: not shown
heavy 2: not shown
light: B1 light
notes: as for B3
B24: GpH7-A5/GpH7-B3 variant A330_14T/GpL16-k0 (antibody, human IgG1, kappa)
heavy 1: not shown
heavy 2: not shown
light: B1 light
notes: as for B3
B25: GpH7-A5/GpH7-B3 variant E333_01G/GpL16-k0 (antibody, human IgG1, kappa)
heavy 1: not shown
heavy 2: not shown
light: B1 light
notes: as for B3
B26: GpH7-A5/GpH7-B3 variant N325_11K/GpL16-k0 (antibody, human IgG1, kappa)
heavy 1: not shown
heavy 2: not shown
light: B1 light
notes: as for B3
B27: GpH7-A5/GpH7-B3 variant A330_12R/GpL16-k0 (antibody, human IgG1, kappa)
heavy 1: not shown
heavy 2: not shown
light: B1 light
notes: as for B3

target: T1, FcγRIa (human, UniProt P12314 16-292); assay: ratio of He/Con_1a to He/Con_2b (FcγRIa over FcγRIIb), SPR
T1 construct: extracellular domain; also called FcgRI; CD64
T1 sequence (P12314 16-292): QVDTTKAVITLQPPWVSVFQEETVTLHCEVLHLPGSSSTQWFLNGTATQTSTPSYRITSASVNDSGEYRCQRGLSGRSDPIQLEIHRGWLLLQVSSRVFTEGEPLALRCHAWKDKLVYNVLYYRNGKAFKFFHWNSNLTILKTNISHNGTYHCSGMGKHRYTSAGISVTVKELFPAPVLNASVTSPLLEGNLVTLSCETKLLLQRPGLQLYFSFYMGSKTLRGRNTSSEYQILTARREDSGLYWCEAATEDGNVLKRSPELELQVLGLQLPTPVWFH
Outline: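 Binding responses come from Biacore SPR with FcγR as analyte over antibody captured on an antigen-peptide surface. Conditions: HBS-EP+ buffer, 25 °C.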

| Binder | He_1a/2b (Ia/IIb) |
| --- | --- |
| B1 | 1.22 |
| B2 | 1.23 |

target: T2, FcγRIIa H (human, UniProt P12318 34-217); assay: SPR (Biacore), FcγR passed over captured antibody; binding amount as % of control GpH7-A5/GpH7-B3/GpL16-k0 (=100)
T2 construct: extracellular domain; also called FcgRIIa H; 2aH; not shown: His tag at the C terminus
T2 sequence (looked up): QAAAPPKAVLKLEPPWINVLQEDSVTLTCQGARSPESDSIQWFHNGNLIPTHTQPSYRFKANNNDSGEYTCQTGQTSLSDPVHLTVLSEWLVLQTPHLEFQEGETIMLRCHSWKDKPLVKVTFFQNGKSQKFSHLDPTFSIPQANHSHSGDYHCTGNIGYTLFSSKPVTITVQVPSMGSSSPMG
Method: (§1) The heterodimerized antibodies He Abs in which one of the H chains was introduced with an alteration were assayed for their binding activities to each activating FcγR and inhibitory FcγR according to the method described in Example 4. […] The activating FcγRs in FIGS. 26, 27, 28, and 29 are FcγRIa, FcγRIIa (R), FcγRIIa (H), and FcγRIIIa, respectively.
(§2) Analysis of interaction between objective antibody and the FcγR was carried out using Biacore T100 (GE Healthcare). HBS-EP+ (GE Healthcare) was used as the running buffer, and the measurement temperature was set to 25° C. Chips produced by immobilizing the antigen peptide by the amine coupling method to a Series S Sencor Chip CM5 (GE Healthcare), or alternatively, chips produced by allowing preliminarily biotinylated antigen peptides to interact with and immobilize onto a Series S Sensor Chip SA (certified) (GE Healthcare) were used. Antibodies of interest were captured onto an antigen peptide-immobilized chip, and allowed to interact to each FcγR diluted with running buffer. To regenerate and repeatedly use the chip, the antibodies captured on the chip were washed off by reacting 10 mM glycine-HCl, pH 1.5.

| Binder | He/Con_2aH |
| --- | --- |
| B3 | 54.9 relative, control = 100 |
| B4 | 105 relative, control = 100 |
| B5 | 84.4 relative, control = 100 |
| B6 | 87.3 relative, control = 100 |
| B7 | 73.7 relative, control = 100 |
| B8 | 110 relative, control = 100 |
| B9 | 87.6 relative, control = 100 |
| B10 | 30.9 relative, control = 100 |
| B11 | 101 relative, control = 100 |
| B12 | 96.2 relative, control = 100 |
| B13 | 87.8 relative, control = 100 |
| B14 | 65.4 relative, control = 100 |
| B15 | 75.5 relative, control = 100 |
| B16 | 81.6 relative, control = 100 |
| B17 | 11.3 relative, control = 100 |
| B18 | 42.5 relative, control = 100 |
| B19 | 29.9 relative, control = 100 |
| B20 | 98.1 relative, control = 100 |
| B21 | 67.3 relative, control = 100 |
| B22 | 79.7 relative, control = 100 |
| B23 | 32.2 relative, control = 100 |
| B24 | 94.5 relative, control = 100 |
| B25 | 97.7 relative, control = 100 |
| B26 | 16.1 relative, control = 100 |
| B27 | 108 relative, control = 100 |

target: T3, FcγRIIb (human, UniProt P31994 43-217); assay: as above
T3 construct: extracellular domain; also called FcgRIIb; 2b; not shown: His tag at the C terminus
T3 sequence (looked up): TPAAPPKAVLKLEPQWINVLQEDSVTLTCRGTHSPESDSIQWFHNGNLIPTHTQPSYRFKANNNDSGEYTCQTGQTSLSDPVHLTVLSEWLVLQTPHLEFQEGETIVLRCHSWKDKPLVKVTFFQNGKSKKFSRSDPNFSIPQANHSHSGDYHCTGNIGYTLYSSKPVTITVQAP
Method: as §1, §2

| Binder | He/Con_2b |
| --- | --- |
| B3 | 41.7 relative, control = 100 |
| B4 | 80.7 relative, control = 100 |
| B5 | 63.7 relative, control = 100 |
| B6 | 67.1 relative, control = 100 |
| B7 | 58.2 relative, control = 100 |
| B8 | 89.9 relative, control = 100 |
| B9 | 70.5 relative, control = 100 |
| B10 | 20.3 relative, control = 100 |
| B11 | 81.8 relative, control = 100 |
| B12 | 76.1 relative, control = 100 |
| B13 | 48.9 relative, control = 100 |
| B14 | 41.3 relative, control = 100 |
| B15 | 59.5 relative, control = 100 |
| B16 | 63.7 relative, control = 100 |
| B19 | 19.1 relative, control = 100 |
| B20 | 80.6 relative, control = 100 |
| B21 | 54.2 relative, control = 100 |
| B22 | 52.4 relative, control = 100 |
| B24 | 77.9 relative, control = 100 |
| B25 | 81.4 relative, control = 100 |
| B26 | 10.4 relative, control = 100 |
| B27 | 84.8 relative, control = 100 |

target: T2, FcγRIIa H; assay: SPR (Biacore); He/Con_2aH divided by He/Con_2b (FcγRIIa H versus FcγRIIb)
Method: as §1, §2

| Binder | He_2aH/2b (IIaH/IIb) [ratio] |
| --- | --- |
| B3 | 1.32 |
| B4 | 1.3 |
| B5 | 1.32 |
| B6 | 1.3 |
| B7 | 1.27 |
| B8 | 1.22 |
| B9 | 1.24 |
| B10 | 1.52 |
| B11 | 1.23 |
| B12 | 1.26 |
| B13 | 1.8 |
| B14 | 1.58 |
| B15 | 1.27 |
| B16 | 1.28 |
| B17 | 1.26 |
| B18 | 4.6 |
| B19 | 1.56 |
| B20 | 1.22 |
| B21 | 1.24 |
| B22 | 1.52 |
| B23 | 4.27 |
| B24 | 1.21 |
| B25 | 1.2 |
| B26 | 1.55 |
| B27 | 1.27 |

target: T1, FcγRIa; assay: SPR (Biacore), captured antibody, soluble FcγR; relative to GpH7-A5/GpH7-B3/GpL16-k0 = 100

| Binder | He/Con_1a |
| --- | --- |
| B1 | 111 % of control |
| B2 | 113 % of control |

target: T4, FcγRIIb (human, UniProt P31994 43-217); assay: as above
T4 construct: extracellular domain; also called FcgRIIb; CD32B
T4 sequence (looked up): T3 sequence (looked up)

| Binder | He/Con_2b |
| --- | --- |
| B1 | 91 % of control |
| B2 | 91.9 % of control |
